Biological target: T1, Siglec-7-ECD (human, UniProt Q9Y286 19-353)
T1 construct: also called p75; AIRM
Assay: monovalent Fab; bio-layer interferometry (ForteBio) per Methods

T1 sequence (Q9Y286 19-353 limits assumed): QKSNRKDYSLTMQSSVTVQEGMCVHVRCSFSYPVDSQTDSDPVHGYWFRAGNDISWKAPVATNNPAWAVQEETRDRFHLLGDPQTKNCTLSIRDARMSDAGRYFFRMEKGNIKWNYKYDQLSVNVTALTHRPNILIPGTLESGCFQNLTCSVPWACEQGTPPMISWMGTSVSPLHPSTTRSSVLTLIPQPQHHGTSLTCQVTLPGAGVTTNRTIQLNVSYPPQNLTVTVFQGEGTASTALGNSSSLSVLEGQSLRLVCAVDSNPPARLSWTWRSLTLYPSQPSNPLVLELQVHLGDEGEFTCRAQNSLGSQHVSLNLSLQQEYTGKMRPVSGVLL

Kd [nM] | Binder
< 0.075 | humanized 16H11-derived Fab, VH AK446-7 / VL AK418-2 (Fab, V domains shown, Measured as monovalent Fab; also called No. 33; AK446-7/AK418-2) VH: QVQLVQSGAEVKKPGSSVKVSCKASGYDFSNFWMNWVRQAPGQGLEWMGQIYPGDGEIKYNQKFQGRVTITADESTSTAYMELSSLRSEDTAVYYCARDDYLRAMDIWGQGTMVTVSS VL: DIQMTQSPSSLSASVGDRVTITCRASGNIHNYLAWYQQKPGKAPKFLLYSAKRLESGVPSRFSGSGSGTDYTLTISSLQPEDFATYYCQHFWSSPYTFGGGTKVEIK
0.075 to 0.15 | humanized 16H11-derived Fab, VH AK449-4 / VL AK418-2 (Fab, V domains shown, Measured as monovalent Fab; also called No. 28) VH: QVQLVQSGAEVKKPGSSVKVSCKASGYDFSNFWMNWVRQAPGQGLEWMGGIYPGDGEIKYNQKFQGRVTITADESTSTAYMELSSLRSEDTAVYYCARDDYLRAMDIWGQGTMVTVSS VL: DIQMTQSPSSLSASVGDRVTITCRASGNIHNYLAWYQQKPGKAPKFLLYSAKRLESGVPSRFSGSGSGTDYTLTISSLQPEDFATYYCQHFWSSPYTFGGGTKVEIK
> 0.5 | humanized 16H11-derived Fab, VH AK417-17 / VL AK426-2 (Fab, V domains shown, Measured as monovalent Fab; also called No. 9) VH: QVQLVQSGAEVKKPGSSVKVSCKASGYDFSNFWMNWVRQAPGQGLEWMGGIYPGDGEINYAQKFQGRVTITADESTSTAYMELSSLRSEDTAVYYCARDDYLRAMDIWGQGTMVTVSS VL: DIQMTQSPSSLSASVGDRVTITCRASQNIHNYLAWYQQKPGKAPKLLLYSAKRLASGVPSRFSGSGSGTDYTLTISSLQPEDFATYYCQHFWSSPYTFGGGTKVEIK
< 0.075 | humanized 16H11-derived Fab, VH AK438-4 / VL AK418-2 (Fab, V domains shown, Measured as monovalent Fab; also called No. 17; VH438-4 and VL418-2) VH: QVQLVQSGAEVKKPGSSVKVSCKASGYDFSNFWMNWVRQAPGQGLEWMGQIYPGDGEIKYNQKFQGRVTLTADESTSTAYMELSSLRSEDTAVYFCARDDYLRAMDYWGQGTLVTVSS VL: DIQMTQSPSSLSASVGDRVTITCRASGNIHNYLAWYQQKPGKAPKFLLYSAKRLESGVPSRFSGSGSGTDYTLTISSLQPEDFATYYCQHFWSSPYTFGGGTKVEIK
0.25 to 0.5 | humanized 16H11-derived Fab, VH AK417-17 / VL AK421-3 (Fab, V domains shown, Measured as monovalent Fab; also called No. 5) VH: QVQLVQSGAEVKKPGSSVKVSCKASGYDFSNFWMNWVRQAPGQGLEWMGGIYPGDGEINYAQKFQGRVTITADESTSTAYMELSSLRSEDTAVYYCARDDYLRAMDIWGQGTMVTVSS VL: DIQMTQSPSSLSASVGDRVTITCRASGNIHNYLAWYQQKPGKAPKFLLYSAKRLESGVPSRFSGSGSGTDYTLTISSLQPEDFATYYCQHFWSSPYTFGQGTKLEIK
< 0.075 | humanized 16H11-derived Fab, VH AK387-11 / VL AK418-2 (Fab, V domains shown, Measured as monovalent Fab; also called No. 32; VH387-11 and VL418-2) VH: QVQLVQSGAEVKKPGSSVKVSCKGSGYDFSNFWMNWVRQAPGQGLEWMGQIYPGDGEIKYNQKFQGRVTLTADESTSTAYMELSSLRSEDTAVYFCARDDYLRAMDYWGQGTLVTVSS VL: DIQMTQSPSSLSASVGDRVTITCRASGNIHNYLAWYQQKPGKAPKFLLYSAKRLESGVPSRFSGSGSGTDYTLTISSLQPEDFATYYCQHFWSSPYTFGGGTKVEIK
< 0.075 | humanized 16H11-derived Fab, VH AK445-3 / VL AK418-2 (Fab, V domains shown, Measured as monovalent Fab; also called No. 25; VH445-3 and VL418-2) VH: QVQLVQSGAEVKKPGSSVKVSCKASGYDFSNFWMNWVRQAPGQGLEWMGQIYPGDGEIKYNQKFQGRVTLTADESTSTAYMELSSLRSEDTAVYYCARDDYLRAMDIWGQGTMVTVSS VL: DIQMTQSPSSLSASVGDRVTITCRASGNIHNYLAWYQQKPGKAPKFLLYSAKRLESGVPSRFSGSGSGTDYTLTISSLQPEDFATYYCQHFWSSPYTFGGGTKVEIK
0.075 to 0.15 | humanized 16H11-derived Fab, VH AK447-2 / VL AK448-3 (Fab, V domains shown, Measured as monovalent Fab; also called No. 27) VH: QVQLVQSGAEVKKPGSSVKVSCKASGYDFSNFWMNWVRQAPGQGLEWMGQIYPGDGEINYNQKFQGRVTITADESTSTAYMELSSLRSEDTAVYYCARDDYLRAMDIWGQGTMVTVSS VL: DIQMTQSPSSLSASVGDRVTITCRASQNIHNYLAWYQQKPGKAPKFLLYSAKRLESGVPSRFSGSGSGTDYTLTISSLQPEDFATYYCQHFWSSPYTFGQGTKLEIK
0.25 to 0.5 | humanized 16H11-derived Fab, VH AK417-17 / VL AK439-5 (Fab, V domains shown, Measured as monovalent Fab; also called No. 21) VH: QVQLVQSGAEVKKPGSSVKVSCKASGYDFSNFWMNWVRQAPGQGLEWMGGIYPGDGEINYAQKFQGRVTITADESTSTAYMELSSLRSEDTAVYYCARDDYLRAMDIWGQGTMVTVSS VL: DIQMTQSPSSLSASVGDRVTITCRASQNIHNYLAWYQQKPGKAPKFLLYSAKRLEDGVPSRFSGSGSGTDYTLTISSLQPEDFATYYCQHFWSSPYTFGQGTKLEIK
< 0.075 | humanized 16H11-derived Fab, VH AK443-1 / VL AK418-2 (Fab, V domains shown, Measured as monovalent Fab; also called No. 23; VH443-1 and VL418-2) VH: QVQLVQSGAEVKKPGSSVKVSCKGSGYDFSNFWMNWVRQAPGQGLEWMGQIYPGDGEIKYNQKFQGRVTITADESTSTAYMELSSLRSEDTAVYYCARDDYLRAMDIWGQGTMVTVSS VL: DIQMTQSPSSLSASVGDRVTITCRASGNIHNYLAWYQQKPGKAPKFLLYSAKRLESGVPSRFSGSGSGTDYTLTISSLQPEDFATYYCQHFWSSPYTFGGGTKVEIK
< 0.075 | humanized 16H11-derived Fab, VH AK441-2 / VL AK418-2 (Fab, V domains shown, Measured as monovalent Fab; also called No. 19; VH441-2 and VL418-2) VH: QVQLVQSGAEVKKPGSSVKVSCKGSGYDFSNFWMNWVRQAPGQGLEWMGQIYPGDGEIKYNQKFQGRVTLTADESTSTAYMELSSLRSEDTAVYYCARDDYLRAMDIWGQGTMVTVSS VL: DIQMTQSPSSLSASVGDRVTITCRASGNIHNYLAWYQQKPGKAPKFLLYSAKRLESGVPSRFSGSGSGTDYTLTISSLQPEDFATYYCQHFWSSPYTFGGGTKVEIK
> 0.5 | humanized 16H11-derived Fab, VH AK417-17 / VL AK427-1 (Fab, V domains shown, Measured as monovalent Fab; also called No. 10) VH: QVQLVQSGAEVKKPGSSVKVSCKASGYDFSNFWMNWVRQAPGQGLEWMGGIYPGDGEINYAQKFQGRVTITADESTSTAYMELSSLRSEDTAVYYCARDDYLRAMDIWGQGTMVTVSS VL: DIQMTQSPSSLSASVGDRVTITCRASQNIHNYLAWYQQKPGKAPKLLLYSAKRLEDGVPSRFSGSGSGTDYTLTISSLQPEDFATYYCQHFWSSPYTFGGGTKVEIK
> 0.5 | humanized 16H11-derived Fab, VH AK417-17 / VL AK424-1 (Fab, V domains shown, Measured as monovalent Fab; also called No. 7) VH: QVQLVQSGAEVKKPGSSVKVSCKASGYDFSNFWMNWVRQAPGQGLEWMGGIYPGDGEINYAQKFQGRVTITADESTSTAYMELSSLRSEDTAVYYCARDDYLRAMDIWGQGTMVTVSS VL: DIQMTQSPSSLSASVGDRVTITCRASGNIHNYLAWYQQKPGKAPKLLLYSAKRLASGVPSRFSGSGSGTDYTLTISSLQPEDFATYYCQHFWSSPYTFGGGTKVEIK
> 0.5 | humanized 16H11-derived Fab, VH AK417-17 / VL AK425-3 (Fab, V domains shown, Measured as monovalent Fab; also called No. 8) VH: QVQLVQSGAEVKKPGSSVKVSCKASGYDFSNFWMNWVRQAPGQGLEWMGGIYPGDGEINYAQKFQGRVTITADESTSTAYMELSSLRSEDTAVYYCARDDYLRAMDIWGQGTMVTVSS VL: DIQMTQSPSSLSASVGDRVTITCRASGNIHNYLAWYQQKPGKAPKLLLYSAKRLEDGVPSRFSGSGSGTDYTLTISSLQPEDFATYYCQHFWSSPYTFGGGTKVEIK
< 0.1 | humanized 16H11-derived Fab, VH AK449-4 / VL AK448-3 (Fab, V domains shown, Measured as monovalent Fab; also called No. 29; VH449-4 and VL448-3) VH: QVQLVQSGAEVKKPGSSVKVSCKASGYDFSNFWMNWVRQAPGQGLEWMGGIYPGDGEIKYNQKFQGRVTITADESTSTAYMELSSLRSEDTAVYYCARDDYLRAMDIWGQGTMVTVSS VL: DIQMTQSPSSLSASVGDRVTITCRASQNIHNYLAWYQQKPGKAPKFLLYSAKRLESGVPSRFSGSGSGTDYTLTISSLQPEDFATYYCQHFWSSPYTFGQGTKLEIK
0.25 to 0.5 | humanized 16H11-derived Fab, VH AK410-1 / VL AK418-2 (Fab, V domains shown, Measured as monovalent Fab; also called No. 1; AK410-1/AK418-2) VH: QVQLVQSGAEVKKPGSSVKVSCKASGYDFSNFWMNWVRQAPGQGLEWMGGIYPGDGEINYAQKFQGRVTITADESTSTAYMELSSLRSEDTAVYYCARDDYLRAMDYWGQGTLVTVSS VL: DIQMTQSPSSLSASVGDRVTITCRASGNIHNYLAWYQQKPGKAPKFLLYSAKRLESGVPSRFSGSGSGTDYTLTISSLQPEDFATYYCQHFWSSPYTFGGGTKVEIK
0.075 to 0.15 | humanized 16H11-derived Fab, VH AK447-2 / VL AK418-2 (Fab, V domains shown, Measured as monovalent Fab; also called No. 26) VH: QVQLVQSGAEVKKPGSSVKVSCKASGYDFSNFWMNWVRQAPGQGLEWMGQIYPGDGEINYNQKFQGRVTITADESTSTAYMELSSLRSEDTAVYYCARDDYLRAMDIWGQGTMVTVSS VL: DIQMTQSPSSLSASVGDRVTITCRASGNIHNYLAWYQQKPGKAPKFLLYSAKRLESGVPSRFSGSGSGTDYTLTISSLQPEDFATYYCQHFWSSPYTFGGGTKVEIK
< 0.1 | humanized 16H11-derived Fab, VH AK440-2 / VL AK418-2 (Fab, V domains shown, Measured as monovalent Fab; also called No. 18; VH440-2 and VL418-2) VH: QVQLVQSGAEVKKPGSSVKVSCKGSGYDFSNFWMNWVRQAPGQGLEWMGQIYPGDGEIKYNQKFQGRVTITADESTSTAYMELSSLRSEDTAVYFCARDDYLRAMDYWGQGTLVTVSS VL: DIQMTQSPSSLSASVGDRVTITCRASGNIHNYLAWYQQKPGKAPKFLLYSAKRLESGVPSRFSGSGSGTDYTLTISSLQPEDFATYYCQHFWSSPYTFGGGTKVEIK
< 0.075 | humanized 16H11-derived Fab, VH AK446-7 / VL AK448-3 (Fab, V domains shown, Measured as monovalent Fab; also called No. 34; AK446-7/AK448-3) VH: QVQLVQSGAEVKKPGSSVKVSCKASGYDFSNFWMNWVRQAPGQGLEWMGQIYPGDGEIKYNQKFQGRVTITADESTSTAYMELSSLRSEDTAVYYCARDDYLRAMDIWGQGTMVTVSS VL: DIQMTQSPSSLSASVGDRVTITCRASQNIHNYLAWYQQKPGKAPKFLLYSAKRLESGVPSRFSGSGSGTDYTLTISSLQPEDFATYYCQHFWSSPYTFGQGTKLEIK
< 0.075 | humanized 16H11-derived Fab, VH AK444-2 / VL AK418-2 (Fab, V domains shown, Measured as monovalent Fab; also called No. 24; VH444-2 and VL418-2) VH: QVQLVQSGAEVKKPGSSVKVSCKASGYDFSNFWMNWVRQAPGQGLEWMGQIYPGDGEIKYNQKFQGRVTITADESTSTAYMELSSLRSEDTAVYFCARDDYLRAMDYWGQGTLVTVSS VL: DIQMTQSPSSLSASVGDRVTITCRASGNIHNYLAWYQQKPGKAPKFLLYSAKRLESGVPSRFSGSGSGTDYTLTISSLQPEDFATYYCQHFWSSPYTFGGGTKVEIK
> 0.5 | humanized 16H11-derived Fab, VH AK446-7 / VL AK419-2 (Fab, V domains shown, Measured as monovalent Fab; also called No. 37) VH: QVQLVQSGAEVKKPGSSVKVSCKASGYDFSNFWMNWVRQAPGQGLEWMGQIYPGDGEIKYNQKFQGRVTITADESTSTAYMELSSLRSEDTAVYYCARDDYLRAMDIWGQGTMVTVSS VL: DIQMTQSPSSLSASVGDRVTITCRASQNIHNYLAWYQQKPGKAPKFLLYSAKRLESGVPSRFSGSGSGTDYTLTISSLQPEDFATYYCQHFWSSPYTFGGGTKVEIK
0.25 | humanized 16H11-derived Fab, VH AK417-8 / VL AK439-5 (Fab, V domains shown, Measured as monovalent Fab; also called No. 22) VH: QVQLVQSGAEVKKPGSSVKVSCKASGYDFSNFWMNWVRQAPGQGLEWMGGIYPGDGEINYAQKFQGRVTITADESTSTAYMELSSLRSEDTAVYYCARDDYLRAMDVWGQGTMVTVSS VL: DIQMTQSPSSLSASVGDRVTITCRASQNIHNYLAWYQQKPGKAPKFLLYSAKRLEDGVPSRFSGSGSGTDYTLTISSLQPEDFATYYCQHFWSSPYTFGQGTKLEIK

— US20190194323A1 (ALLAKOS, published 2019)
